# Assay results from PMC8615271, “Functional Interplay between P5 and PDI/ERp72 to Drive Protein Folding” (Biology, 2021).
# T1: ERp72 (human, UniProt P13667 25-645)
# T1 construct: human ERp72, Glu25-Leu645, cloned into pET15b; source: E. coli BL21 (DE3), purified (Ni-NTA, thrombin digestion, RESOURCE Q, Superdex 200)
# T1 sequence (looked up): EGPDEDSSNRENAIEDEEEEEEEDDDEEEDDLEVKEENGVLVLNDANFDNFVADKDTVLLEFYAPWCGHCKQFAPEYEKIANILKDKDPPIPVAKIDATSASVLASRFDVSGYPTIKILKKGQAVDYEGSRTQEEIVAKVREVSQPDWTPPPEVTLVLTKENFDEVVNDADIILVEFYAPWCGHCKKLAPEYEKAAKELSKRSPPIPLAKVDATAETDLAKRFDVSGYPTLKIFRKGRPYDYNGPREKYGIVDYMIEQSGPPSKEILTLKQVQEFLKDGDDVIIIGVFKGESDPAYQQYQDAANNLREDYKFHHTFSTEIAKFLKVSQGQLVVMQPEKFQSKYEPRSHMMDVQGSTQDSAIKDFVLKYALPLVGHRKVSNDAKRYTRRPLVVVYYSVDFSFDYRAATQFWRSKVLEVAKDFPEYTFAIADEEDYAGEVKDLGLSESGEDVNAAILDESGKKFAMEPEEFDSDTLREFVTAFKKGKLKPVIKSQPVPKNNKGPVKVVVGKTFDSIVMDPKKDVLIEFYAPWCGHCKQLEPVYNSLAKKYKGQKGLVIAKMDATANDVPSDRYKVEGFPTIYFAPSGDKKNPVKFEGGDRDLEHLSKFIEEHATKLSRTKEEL
# T2: IRE1α LD (human, UniProt O75460 24-446)
# T2 construct: human IRE1 (IRE1α LD), Ser24-Thr446, cloned into pGEX6p-1; It prints 'C-terminal GST', although pGEX6p-1 usually adds GST at the N-terminus; both tags were removed in any case; also called ER stress sensor IRE1; source: E. coli BL21 (DE3), purified (Glutathione Sepharose 4B, PreScission digestion, Ni-NTA, RESOURCE Q, Superdex 200); not shown: GST, C-terminal, cleaved
# T2 sequence (looked up): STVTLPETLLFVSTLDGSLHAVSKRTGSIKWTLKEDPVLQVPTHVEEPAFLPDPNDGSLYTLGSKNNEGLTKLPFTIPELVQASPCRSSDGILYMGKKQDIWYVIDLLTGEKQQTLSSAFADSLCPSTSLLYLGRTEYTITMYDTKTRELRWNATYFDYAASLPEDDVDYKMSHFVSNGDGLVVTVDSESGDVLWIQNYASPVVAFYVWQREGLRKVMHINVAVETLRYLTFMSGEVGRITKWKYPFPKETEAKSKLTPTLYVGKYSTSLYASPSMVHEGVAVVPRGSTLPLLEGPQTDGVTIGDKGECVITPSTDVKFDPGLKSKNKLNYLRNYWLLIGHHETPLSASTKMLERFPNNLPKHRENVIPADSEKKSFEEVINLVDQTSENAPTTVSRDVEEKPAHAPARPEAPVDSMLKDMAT
# B1: P5 (reduced form) (enzyme, human, UniProt Q15084 20-440, looked up)
# chain: LYSSSDDVIELTPSNFNREVIQSDSLWLVEFYAPWCGHCQRLTPEWKKAATALKDVVKVGAVDADKHHSLGGQYGVQGFPTIKIFGSNKNRPEDYQGGRTGEAIVDAALSALRQLVKDRLGGRSGGYSSGKQGRSDSSSKKDVIELTDDSFDKNVLDSEDVWMVEFYAPWCGHCKNLEPEWAAAASEVKEQTKGKVKLAAVDATVNQVLASRYGIRGFPTIKIFQKGESPVDYDGGRTRSDIVSRALDLFSDNAPPPELLEIINEDIAKRTCEEHQLCVVAVLPHILDTGAAGRNSYLEVLLKLADKYKKKMWGWLWTEAGAQSELETALGIGGFGYPAMAAINARKMKFALLKGSFSEQGINEFLRELSFGRGSTAPVGGGAFPTIVEREPWDGRDGELPVEDDIDLSDVELDDLGKDEL
# notes: human P5 (PDIA6), Lys20-Leu440, cloned into pET15b; Used reduced (10 mM dithiothreitol treatment during purification); this was not measured here; also called ERp5; PDIA6; source: E. coli BL21 (DE3), purified (Ni-NTA, thrombin digestion, RESOURCE Q, Superdex 200)
# Columns and labels:
# Settings in all cases: both partners purified
# PDI [1] = target: T3, PDI (human, UniProt P07237 18-508); experiment: far-Western, overlay or dot blot; reduced purified prey proteins (from 40 µM stocks, 3 µL) dotted on nitrocellulose; blocked with 5% skim milk in TBST; incubated with 0.2 µM reduced P5 in 20 mM Tris-HCl pH 7.6, 150 mM NaCl, 0.05% Tween 20 at 4 °C for 3 h; bound P5 detected with anti-P5 antiserum
# T3 construct: human PDI (P4HB), Asp18-Leu508, cloned into pET15b; also called protein disulfide isomerase; P4HB; source: E. coli BL21 (DE3), purified (Ni-NTA, thrombin digestion, RESOURCE Q, Superdex 200)
# ERp72 [2] = target: T1, ERp72; experiment: as above
# IRE1α LD = target: T2, IRE1α LD; experiment: as above
# PDI [3] = target: T3, PDI; experiment: ITC; 280 µM P5 Cys55/58/190/193Ala mutant in the syringe (50 mM HEPES pH 7.2, 150 mM NaCl) titrated into 40 µM PDI or ERp72 in the cell (50 mM HEPES pH 7.2); 30 °C; one set of sites model
# ERp72 [4] = target: T1, ERp72; experiment: as above
# P5 (reduced form) = target: B1; experiment: far-Western, overlay or dot blot; reduced purified prey proteins (from 40 µM stocks, 3 µL) dotted on nitrocellulose; blocked with 5% skim milk in TBST; incubated with 0.2 µM reduced P5 in 20 mM Tris-HCl pH 7.6, 150 mM NaCl, 0.05% Tween 20 at 4 °C for 3 h; bound P5 detected with anti-P5 antiserum
# T3 sequence (P07237 18-508): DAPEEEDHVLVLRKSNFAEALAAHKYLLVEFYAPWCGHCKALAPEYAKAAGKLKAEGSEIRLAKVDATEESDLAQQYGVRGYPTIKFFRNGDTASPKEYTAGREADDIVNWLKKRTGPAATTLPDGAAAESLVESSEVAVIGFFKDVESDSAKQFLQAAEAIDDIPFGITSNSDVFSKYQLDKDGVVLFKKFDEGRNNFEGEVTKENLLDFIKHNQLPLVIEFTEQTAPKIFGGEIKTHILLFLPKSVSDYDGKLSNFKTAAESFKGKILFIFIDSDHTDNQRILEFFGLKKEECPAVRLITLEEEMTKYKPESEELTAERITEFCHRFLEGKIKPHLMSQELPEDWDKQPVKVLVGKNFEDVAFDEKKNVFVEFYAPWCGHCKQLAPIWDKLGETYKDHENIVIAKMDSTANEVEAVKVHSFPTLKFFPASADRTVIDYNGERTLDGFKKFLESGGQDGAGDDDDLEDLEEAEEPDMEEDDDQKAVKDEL
binder,measurement,setting,value
B1,binding result,PDI [1],binds
same,binding result,ERp72 [2],binds
same,binding result,IRE1α LD,binds
"Catalytically-inactive P5 (Cys55/58/190/193Ala) mutant (enzyme, human, UniProt Q15084 20-440, looked up, human P5 (PDIA6), Lys20-Leu440, with the four active-site cysteines changed to alanine; The limits are those stated for the human P5 gene in pET15b; also called mutated P5; source: E. coli BL21 (DE3), purified (Ni-NTA, thrombin digestion, RESOURCE Q, Superdex 200)) LYSSSDDVIELTPSNFNREVIQSDSLWLVEFYAPWAGHAQRLTPEWKKAATALKDVVKVGAVDADKHHSLGGQYGVQGFPTIKIFGSNKNRPEDYQGGRTGEAIVDAALSALRQLVKDRLGGRSGGYSSGKQGRSDSSSKKDVIELTDDSFDKNVLDSEDVWMVEFYAPWAGHAKNLEPEWAAAASEVKEQTKGKVKLAAVDATVNQVLASRYGIRGFPTIKIFQKGESPVDYDGGRTRSDIVSRALDLFSDNAPPPELLEIINEDIAKRTCEEHQLCVVAVLPHILDTGAAGRNSYLEVLLKLADKYKKKMWGWLWTEAGAQSELETALGIGGFGYPAMAAINARKMKFALLKGSFSEQGINEFLRELSFGRGSTAPVGGGAFPTIVEREPWDGRDGELPVEDDIDLSDVELDDLGKDEL",dH,PDI [3],-4.4 ± 0.2 kcal/mol
same,stoichiometry N,PDI [3],0.1
same,dH,ERp72 [4],-10.7 ± 0.8 kcal/mol
same,stoichiometry N,ERp72 [4],0.1
"ERp46 (enzyme, human ERp46, Arg33-Leu432, cloned into pET15b; source: E. coli BL21 (DE3), purified (Ni-NTA, thrombin digestion, RESOURCE Q, Superdex 200)) not shown",binding result,P5 (reduced form),binds
